Numbering of substitutions follows the chain as printed. Names may count otherwise.
Key:
[1] = substrate: COc1cccc(OC)c1O; assay: steady-state kinetics, oxidation followed by absorbance; assay type: biochemical, Bacillus subtilis
From the text: steady-state kinetics, oxidation followed by absorbance on BsDyP

[2] = substrate: CCn1c(=NN=c2sc3cc(S(=O)(=O)O)ccc3n2CC)sc2cc(S(=O)(=O)O)ccc21; assay: steady-state kinetics, ABTS oxidation; assay type: biochemical, Bacillus subtilis; conditions: one kcat column shared with H2O2
From the text: steady-state kinetics, ABTS oxidation on BsDyP

[3] = 0.2 mM H2O2, sodium phosphate buffer pH 3.8, 25 °C, apparent, rates per holoprotein
[4] = 0.2 mM H2O2, pH 4.2, 25 °C, apparent
[5] = variant 54D6, 0.6 mM H2O2, sodium phosphate buffer pH 3.8, 25 °C
[6] = variant 54D6, 0.6 mM H2O2, pH 4.2, 25 °C
[7] = variant 3G5, 0.6 mM H2O2, sodium phosphate buffer pH 3.8, 25 °C
[8] = variant 3G5, 0.6 mM H2O2, pH 4.2, 25 °C
[9] = variant 5G5, 0.6 mM H2O2, sodium phosphate buffer pH 3.8, 25 °C
[10] = variant 5G5, 0.6 mM H2O2, pH 4.2, 25 °C
[11] = variant 1F9, 0.6 mM H2O2, sodium phosphate buffer pH 3.8, 25 °C
[12] = variant 1F9, 0.6 mM H2O2, pH 4.2, 25 °C

B1: BsDyP (Bacillus subtilis subsp. subtilis str. 168; A45M) (protein)
chain: MKPSKKDEKEEEQIVPFYGKHQAGITTAHQTYVYFAALDVTAKDKSDIITLFRNWTSLTQMLTSGKKMSAEQRNQYLPPQDTGESADLSPSNLTVTFGFGPGFFEKDGKDRFGLKSKKPKHLAALPAMPNDNLDEKQGGGDICIQVCADDEQVAFHALRNLLNQAVGTCEVRFVNKGFLSGGKNGETPRNLFGFKDGTGNQSTKDDTLMNSIVWIQSGEPDWMTGGTYMAFRKIKMFLEVWDRSSLKDQEDTFGRRKSSGAPFGQKKETDPVKLNQIPSNSHVSLAKSTGKQILRRAFSYTEGLDPKTGYMDAGLLFISFQKNPDNQFIPMLKALSAKDALNEYTQTIGSALYACPGGCKKGEYIAQRLLES
notes: Tat signal peptide (residues 1-45) deleted, A45M new start codon, plasmid pVB4 (pET-21a), no tag told; expressed in E. coli Tuner(DE3); called wild-type BsDyP; precursor 416 residues
For B1, the Km [1, 3] was 60 ± 10 µM, the kcat [1, 3] was 0.42 ± 0.03 s⁻¹ and the kcat/Km [1, 3] was 7000 ± 1000 M⁻¹ s⁻¹. For the same protein, the Km [2, 4] was 420 ± 30 µM, the kcat [2, 4] was 14.2 ± 1.0 s⁻¹ and the kcat/Km [2, 4] was 36000 ± 3000 M⁻¹ s⁻¹.

B2: BsDyP (Bacillus subtilis subsp. subtilis str. 168; A45M/K317E/S325P) (protein)
chain: B1 chain with K273E, S281P
notes: as for B1
B2 showed a Km [1, 5] of 600 ± 10 µM, a kcat [1, 5] of 1 ± 0.1 s⁻¹ and a kcat/Km [1, 5] of 1600 ± 500 M⁻¹ s⁻¹. It also gave a Km [2, 6] of 800 ± 140 µM, a kcat [2, 6] of 47.7 ± 2.9 s⁻¹ and a kcat/Km [2, 6] of 60000 ± 11000 M⁻¹ s⁻¹.

B3: BsDyP (Bacillus subtilis subsp. subtilis str. 168; A330V/A45M/L166Q/T296S/V284A) (protein)
chain: B1 chain with L122Q, V240A, T252S, A286V
notes: as for B1
With B3 the Km [1, 7] was 90 ± 10 µM, the kcat [1, 7] was 0.8 ± 0.1 s⁻¹ and the kcat/Km [1, 7] was 9000 ± 1000 M⁻¹ s⁻¹. The Km [2, 8] was 1370 ± 250 µM, the kcat [2, 8] was 28.1 ± 2.1 s⁻¹ and the kcat/Km [2, 8] was 25000 ± 5000 M⁻¹ s⁻¹.

B4: BsDyP (Bacillus subtilis subsp. subtilis str. 168; A330V/A45M/K317E/S325P) (protein)
chain: B1 chain with K273E, S281P, A286V
notes: as for B1
Protein B4 has a Km [1, 9] of 700 ± 100 µM, a kcat [1, 9] of 2.8 ± 0.1 s⁻¹ and a kcat/Km [1, 9] of 3800 ± 200 M⁻¹ s⁻¹. It also gave a Km [2, 10] of 1290 ± 190 µM, a kcat [2, 10] of 56.1 ± 1.9 s⁻¹ and a kcat/Km [2, 10] of 42000 ± 6000 M⁻¹ s⁻¹.

B5: BsDyP (Bacillus subtilis subsp. subtilis str. 168; A45M/S325P) (protein)
chain: B1 chain with S281P
notes: as for B1
Protein B5 has a Km [1, 11] of 150 ± 10 µM, a kcat [1, 11] of 0.83 ± 0.04 s⁻¹ and a kcat/Km [1, 11] of 5500 ± 400 M⁻¹ s⁻¹. It also gave a Km [2, 12] of 890 ± 100 µM, a kcat [2, 12] of 50.4 ± 1.4 s⁻¹ and a kcat/Km [2, 12] of 58000 ± 7000 M⁻¹ s⁻¹.
